T1: FcγRIIb extracellular domain with C-terminal His tag (human, UniProt P31994 43-217)
T1 construct: extracellular domain; Soluble receptor expressed in FreeStyle293 cells; analyte in Biacore; also called FcgRIIb; 2b; not shown: His tag at the C terminus
T1 sequence (looked up): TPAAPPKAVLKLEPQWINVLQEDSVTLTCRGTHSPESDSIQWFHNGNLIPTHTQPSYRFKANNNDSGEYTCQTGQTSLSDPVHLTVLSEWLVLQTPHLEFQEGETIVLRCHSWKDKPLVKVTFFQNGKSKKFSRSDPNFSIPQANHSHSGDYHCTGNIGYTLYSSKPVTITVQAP


How the values were obtained:
[1] = biological target: T2, FcγRIa extracellular domain with C-terminal His tag (human, UniProt P12314 16-292); test: SPR (Biacore); He/Con_1a divided by He/Con_2b (FcγRIIb)
T2 construct: extracellular domain; Soluble receptor expressed in FreeStyle293 cells; analyte in Biacore; also called FcgRI; FcgRIa; not shown: His tag at the C terminus
Protocol: (§1) The heterodimerized antibodies He Abs in which one of the H chains was introduced with an alteration were assayed for their binding activities to each activating FcγR and inhibitory FcγR according to the method described in Example 4. […] The activating FcγRs in FIGS. 26, 27, 28, and 29 are FcγRIa, FcγRIIa (R), FcγRIIa (H), and FcγRIIIa, respectively.
(§2) Analysis of interaction between objective antibody and the FcγR was carried out using Biacore T100 (GE Healthcare). HBS-EP+ (GE Healthcare) was used as the running buffer, and the measurement temperature was set to 25° C. Chips produced by immobilizing the antigen peptide by the amine coupling method to a Series S Sencor Chip CM5 (GE Healthcare), or alternatively, chips produced by allowing preliminarily biotinylated antigen peptides to interact with and immobilize onto a Series S Sensor Chip SA (certified) (GE Healthcare) were used. Antibodies of interest were captured onto an antigen peptide-immobilized chip, and allowed to interact to each FcγR diluted with running buffer. To regenerate and repeatedly use the chip, the antibodies captured on the chip were washed off by reacting 10 mM glycine-HCl, pH 1.5.

[2] = biological target: T2, FcγRIa extracellular domain with …; test: SPR (Biacore), antibody captured on antigen peptide chip, FcγR as analyte; binding relative to GpH7-A5/GpH7-B3/GpL16-k0 = 100
Protocol: as §1, §2

[3] = biological target: T1, FcγRIIb extracellular domain with …; test: as above
Protocol: as §1, §2

T2 sequence (P12314 16-292): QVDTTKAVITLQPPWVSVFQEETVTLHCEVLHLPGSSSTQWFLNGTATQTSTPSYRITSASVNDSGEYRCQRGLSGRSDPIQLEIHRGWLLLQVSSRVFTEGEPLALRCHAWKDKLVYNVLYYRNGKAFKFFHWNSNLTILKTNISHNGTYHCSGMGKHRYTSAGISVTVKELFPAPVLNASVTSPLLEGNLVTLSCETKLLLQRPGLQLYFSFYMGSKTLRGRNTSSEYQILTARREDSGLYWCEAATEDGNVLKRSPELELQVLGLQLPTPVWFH

Row | Binder | He_1a/2b (Ia/IIb) [1] | He/Con_1a (Ia binding) [2] | He/Con_2b (IIb binding) [3]
1 | GpH7-A5/GpH7-B3 variant P329_01G/GpL16-k0 (antibody, human IgG1, kappa, He Ab: heterodimerized anti-glypican-3 IgG1, substitution in one H chain only; also called He Ab P329G) heavy 1: not shown heavy 2: not shown light: DIVMTQSPLSLPVTPGEPASISCQASESLVHSNRNTYLHWYLQKPGQSPQLLIYKVSNRFSGVPDRFSGSGSGTDFTLKISRVEAEDVGVYYCSQNTHVPPTFGQGTKVEIERTVAAPSVFIFPPSDEQLKSGTASVVCLLNNFYPREAKVQWKVDNALQSGNSQESVTEQDSKDSTYSLSSTLTLSKADYEKHKVYACEVTHQGLSSPVTKSFNRGEC | 2.42 | 101 % of control (control = 100) | 41.7 % of control (control = 100)
2 | GpH7-A5/GpH7-B3 variant A330_14T/GpL16-k0 (antibody, human IgG1, kappa, He Ab: heterodimerized anti-glypican-3 IgG1, substitution in one H chain only; also called He Ab A330T) heavy 1: not shown heavy 2: not shown light: DIVMTQSPLSLPVTPGEPASISCQASESLVHSNRNTYLHWYLQKPGQSPQLLIYKVSNRFSGVPDRFSGSGSGTDFTLKISRVEAEDVGVYYCSQNTHVPPTFGQGTKVEIERTVAAPSVFIFPPSDEQLKSGTASVVCLLNNFYPREAKVQWKVDNALQSGNSQESVTEQDSKDSTYSLSSTLTLSKADYEKHKVYACEVTHQGLSSPVTKSFNRGEC | 1.35 | 105 % of control (control = 100) | 77.9 % of control (control = 100)
3 | GpH7-A5/GpH7-B3 variant E333_01G/GpL16-k0 (antibody, human IgG1, kappa, He Ab: heterodimerized anti-glypican-3 IgG1, substitution in one H chain only; also called He Ab E333G) heavy 1: not shown heavy 2: not shown light: DIVMTQSPLSLPVTPGEPASISCQASESLVHSNRNTYLHWYLQKPGQSPQLLIYKVSNRFSGVPDRFSGSGSGTDFTLKISRVEAEDVGVYYCSQNTHVPPTFGQGTKVEIERTVAAPSVFIFPPSDEQLKSGTASVVCLLNNFYPREAKVQWKVDNALQSGNSQESVTEQDSKDSTYSLSSTLTLSKADYEKHKVYACEVTHQGLSSPVTKSFNRGEC | 1.26 | 103 % of control (control = 100) | 81.4 % of control (control = 100)
4 | GpH7-A5/GpH7-B3 variant A330_06M/GpL16-k0 (antibody, human IgG1, kappa, He Ab: heterodimerized anti-glypican-3 IgG1, substitution in one H chain only; also called He Ab A330M) heavy 1: not shown heavy 2: not shown light: DIVMTQSPLSLPVTPGEPASISCQASESLVHSNRNTYLHWYLQKPGQSPQLLIYKVSNRFSGVPDRFSGSGSGTDFTLKISRVEAEDVGVYYCSQNTHVPPTFGQGTKVEIERTVAAPSVFIFPPSDEQLKSGTASVVCLLNNFYPREAKVQWKVDNALQSGNSQESVTEQDSKDSTYSLSSTLTLSKADYEKHKVYACEVTHQGLSSPVTKSFNRGEC | 1.3 | 105 % of control (control = 100) | 80.5 % of control (control = 100)
5 | GpH7-A5/GpH7-B3 variant A330_08L/GpL16-k0 (antibody, human IgG1, kappa, He Ab: substitution in one H chain only; also called He Ab A330L) heavy 1: not shown heavy 2: not shown light: DIVMTQSPLSLPVTPGEPASISCQASESLVHSNRNTYLHWYLQKPGQSPQLLIYKVSNRFSGVPDRFSGSGSGTDFTLKISRVEAEDVGVYYCSQNTHVPPTFGQGTKVEIERTVAAPSVFIFPPSDEQLKSGTASVVCLLNNFYPREAKVQWKVDNALQSGNSQESVTEQDSKDSTYSLSSTLTLSKADYEKHKVYACEVTHQGLSSPVTKSFNRGEC | 1.52 | 107 % of control (control = 100) | 70.5 % of control (control = 100)

The next lines start with the values.

Row | He_1a/2b (Ia/IIb) [1] | He/Con_1a (Ia binding) [2] | He/Con_2b (IIb binding) [3] | Binder
6 | 2.01 | 106 % of control (control = 100) | 52.4 % of control (control = 100) | GpH7-A5/GpH7-B3 variant A330_03V/GpL16-k0 (antibody, human IgG1, kappa, He Ab: heterodimerized anti-glypican-3 IgG1, substitution in one H chain only; also called He Ab A330V) heavy 1: not shown heavy 2: not shown light: DIVMTQSPLSLPVTPGEPASISCQASESLVHSNRNTYLHWYLQKPGQSPQLLIYKVSNRFSGVPDRFSGSGSGTDFTLKISRVEAEDVGVYYCSQNTHVPPTFGQGTKVEIERTVAAPSVFIFPPSDEQLKSGTASVVCLLNNFYPREAKVQWKVDNALQSGNSQESVTEQDSKDSTYSLSSTLTLSKADYEKHKVYACEVTHQGLSSPVTKSFNRGEC
7 | 1.67 | 106 % of control (control = 100) | 63.7 % of control (control = 100) | GpH7-A5/GpH7-B3 variant A330_18N/GpL16-k0 (antibody, human IgG1, kappa, He Ab: heterodimerized anti-glypican-3 IgG1, substitution in one H chain only; also called He Ab A330N) heavy 1: not shown heavy 2: not shown light: DIVMTQSPLSLPVTPGEPASISCQASESLVHSNRNTYLHWYLQKPGQSPQLLIYKVSNRFSGVPDRFSGSGSGTDFTLKISRVEAEDVGVYYCSQNTHVPPTFGQGTKVEIERTVAAPSVFIFPPSDEQLKSGTASVVCLLNNFYPREAKVQWKVDNALQSGNSQESVTEQDSKDSTYSLSSTLTLSKADYEKHKVYACEVTHQGLSSPVTKSFNRGEC
8 | 2.22 | 91.5 % of control (control = 100) | 41.3 % of control (control = 100) | GpH7-A5/GpH7-B3 variant A330_13S/GpL16-k0 (antibody, human IgG1, kappa, He Ab: heterodimerized anti-glypican-3 IgG1, substitution in one H chain only; also called He Ab A330S) heavy 1: not shown heavy 2: not shown light: DIVMTQSPLSLPVTPGEPASISCQASESLVHSNRNTYLHWYLQKPGQSPQLLIYKVSNRFSGVPDRFSGSGSGTDFTLKISRVEAEDVGVYYCSQNTHVPPTFGQGTKVEIERTVAAPSVFIFPPSDEQLKSGTASVVCLLNNFYPREAKVQWKVDNALQSGNSQESVTEQDSKDSTYSLSSTLTLSKADYEKHKVYACEVTHQGLSSPVTKSFNRGEC
